In the DeepSol protein solubility set:

Experiment: soluble on expression in E. coli; label from the status in PepcDB or PDB records

Row | Sequence | soluble on expression in E. coli
1 | ARKCSLTGKWTNNLGSIMTIRAVNSRGEFTGTYLTAVADNPGNITLSPLLGIQHKRASQPTFGFTVHWNFSESTTVFTGQCFIDRNGKEVLKTMWLLRSSVNDISYDWIATRVGYNNFTRLSTVEE | soluble
2 | TTAIASDRLKKRFDRWDFDGNGALERADFEKEAQHIAEAFGKDAGAAEVQTLKNAFGGLFDYLAKEAGVGSDGSLTEEQFIRVTENLIFEQGEASFNRVLGPVVKGIVGMCDKNADGQINADEFAAWLTALGMSKAEAAEAFNQVDTNGNGELSLDELLTAVRDFHFGRLDVELLG | soluble
3 | RVMDMKAPIKVYMTKKLLGVKPSTSVQEASRLMMEFDVGSLVVINDDGNVVGFFTKSDIIRRVIVPGLPYDIPVERIMTRNLITANVNTPLGEVLRKMAEHRIKHILIEEEGKIVGIFTLSDLLEASRRRLETAISAE | soluble
4 | MGSDKIHHHHHHMAKDIHSKAGTTLPPYFNIDPDAAMAELDQPTDTARFAEIAEGCARGRADLASRGLNEEGSKNLRLFSTWEITRYLIPVAQAHFRRVLKANPDLPQGRSETEGGAKWFTLDEVLRLRAFFAAQGSKAKNYLPYRPEGLPAKLVAVANFKGGVGKTSTAAHLAMSAALDGYKVLVIDLDSQGSMTSIFGGKIEDEWQTAFPLLARHYGEHLRVENQRRLDRGDAPQPLDESLTAAMEMTAKDVIQPTHWPNIDLIGAQLNLYWAEFQIPVWRMAARSWKLWDALTDRLEADGVLDQYDVVFIDTPPALGYLTINGLSAADILLVPMGASFLEFDSTGRFFDMLHSTFASIEEGENLAARALGRPEIGFEWDAVRAVITRYDGAQQGELAGLVQAYMGPTLSPHRQDFTALIGQAGEQVNGIYEADYRDFNRETYARGRETFDETYAAFKRLLNGVWRREELAVQEERAAS | not soluble
5 | MSKVIIPKIVGHRGVGKEGLAPENTLRSFVLCMERNIPYIETDLRVCKTGEIVLFHGTPEGTIPFYKDGTSRIGDLSLEELKRLDVGGGHTIPSLEELFVAIEEQKFNLKLNLELKGEEWKRKESGDHQRLLLLVEKYHMQERVDYCSFHHEALAHLKALCPDVKITYLFNYMGQPTPLDFVEQTQKACYGDANGVSMLFHYLTKEQVCTAHEKGLSVTVWMPWIFDDSEEDWKKCLELQVDLICSNYPFGLMNFLSNISE | soluble
6 | MLRGGVNDCKIKWEFLIGNSIDSSPILAKNGTIYLGSSNKNLYAINTDGSVKWFFKSGEIIECRPSIGKDGTIYFGSDKVYAINPDGTEKWRFDTKKAIVSDFTIFEDILYVTSMDGHLYAINPDGTEKWRFKTKKAIYATPIVSEDGTIYVGSNDNYLYAINPDGTEKWRFKTNDAITSAASIGKDGTIYFGSDKVYAINPDGTEKWNFYAGYWTVTRPAISEDGTIYVTSLDGHLYAINPDGTEKWRFKTGKRIESSPVIGNTDTIYFGSYDGHLYAINPDGTEKWNFETGSWIIATPVIDENGTIYFGTRNGKFYALFNLEHHHHHH | soluble
7 | MDGLDYFEPNPDYRVAATVEVDDSDETITMETTAEGERLYERVARLTFEVPDASDNRDEHTLVAYQRVDQRGDGSLFVPFRDKTTGQQTYPAGRYMELHYEGDLEDGATVPLDFNLAYNPFCAYSDAYECPLPPQENWLEIVVPAGERDDQLEHHHHHH | soluble
8 | GPGSMLRRTDRCGQRKVEKLLVANRGEIACRVFRTCREMHIRTVALFCEAERNAKHVVEADEAVCIGPPPAVNSYLRGDHIISVAKQLNVDAIHPGYGFLSENADFAEAVTRSGIEFIGPPASAISLMGSKSESKRIMEAAGVPVVPGYYGENQNVSFLAEEANRVGFPILIKAVSGGGGKGMKIVERPEDFAFMLESAKREAANFFKDDRVILERYVKRPRHIECQIFFDKHGRGVFFFERDCSVQRRYQKVLEEAPAPHLSMEMRQRIGEVALQAAKAVGYVGAGTVEFIFDTSTGDFYFMEMNTRLQVEHPVTEEVCRIKGAPLDLVKLQIKTAMGKPLTFSQEDVALVGSCIEARVYAESPERGFLPESGPLTFIREPFQGVRGPTRTRLDTGFCEGDNVLIHYDPMLAKVISWGRNREDALKGLRQALGEYKVAGINTNIEFLKRCCEAPEFARGGVTTNFISEHEKQLLNAPAVTPKVAAMAATAWLLNRCDNWRGAFRLNGDTSATVHFYIDNRPVEVRLHTEGANYHKIFFSVWDHEGSFAVGSGPVTSKHRDQRSIVNGFTFLFENGMRHTVLAVATEGDVTIIGSFGLHQIRLLPLTDGFGDASMAGGTSAKIVSPMPGKVSKFLVNSGDFVEKGQALMIVEAMKMEHPVKALQDGQVSFLVKEGEVVGSDHVLATVVQKE | not soluble
9 | MAAKNAFYAQSGGVTAVINASAAGVIEAARKQSGKIGRIYAGRNGIIGALTEDLIDTGQESDAAISALRYTPSGAFGSCRYKLKSLEQNRREYERLIEVFKAHDIGYFFYNGGGDSADTCLKVSQLSGTLGYPIQAIHVPKTVDNDLPITDCCPGFGSVAKYIAVSTLEASFDVASMSATSTKVFVLEVMGRHAGWIAAAGGLASSPEREIPVVILFPEISFDKQKFLAKVDSCVKKFGYCSVVVSEGVKGDDGKFLSDQGVRDAFGHAQLGGVAPVVASMVKEGLGLKYHWGVADYLQRAARHIASKTDVEQAYAMGQAAVEFAVQGHNSVMPTIERISARPYQWKVGMAQLSQVANVEKMMPENFITEDGFGITDLCREYLAPLIEGEDYPPYKDGLPDYVRLKNVAVPKKLSGFTLLEHHHHHH | not soluble
10 | MGSDKIHHHHHHMSSKPIAPLHGRTIIMTRAQEQQSEARSQLHALGSNVLDLPALVIGPPDDWQPLDDALADIKTFHWLVFSSANGVRAVEERLQRIGQSLANRPKGLKLAAVGRKTAQYLEHLGAAVDFVPPNFVADSLINHFPVSGFGLKMLLPRVQSGGRTILGEAFRESGAHVIEVAAYESRCPEAIPDDTATALANSNVDAIAFSSGKTAAHTASLLSHRFGSDWLQQLETVKVISIGPQTSLSCEQHFGRVDQEADPHNLEGLISACVKACRSEAETCPPGSR | not soluble
11 | MVNRLINSRSPYLRKAANQPVEWFEWGEEAFAKAKKEDKPILLSIGGVWCHWCHVMAKESFENEEIAEMINRNFVAIKVDRDERPDIDKRYQEFVMATTGSGGWPLTVFLTPDGKPFFGGTYFPPEDRYHLPGFKTVLRKIAEMWRHDRERLLKSAEELTEAVRRYAE | not soluble
12 | MNGGKETIDDMSLVVGMYGNYEVTKTGNLVGILEVSGINLDLLNETEQQDVFEDYGAFLMSTLGEGVDDTLQFLEPTIPVNMTTYLNGLKRRYLALQKDHPEQQFKIQLIASYLDHFTKVQESKNMTTKQHLLIVKVPIKDKSAESLNLAVAHLDEKIEQVKRDIENALTDFDVTAKILTSQEVQEILKNLINFNGLEHHHHHH | soluble
13 | MKKSNIYIGEVIKQVIAEKQVTKAELARRLGVKPQSVDYLLTRKSIDTDTLYSLSLALDYDFAVLYSIKKEHALATDEESPFKVGNAKISLEIELRPDEMLKLNLKQKIADLLEGKGK | not soluble
14 | MAHHHHHHMENEALKEQEGEENKRILVLHKRYREGPFENRLRFECELEFVQSLSNIDYIKHLYENKYFSDKRFLNYLKYLNYWRTKPYIFYIHFPICLYVLEILNDGKIDEYFSKESSFNNFVYYLKLHWLFYSYQI | not soluble
15 | MSLLSRSVKRELVGKSAQMEQIRSHVAQYALLNRHVVIVGESGCGRHTIAYLIHQLTTNNGHLPWVELVASAKTEWSTVEPKVQESAGGTLLIDHIELLSEEVQRNVVQSLLNQERLNRPRTRVIAVIDQPPEQLIAQNQLLPELYYLLNQGQIDVPLLRQRPDDIAALFHYFLKQSCYKLGKPMPNVEPHYLALLRAHQWPGNVRELRNVAELYAIGIVKLAGKERLYNQEEMLSPLDELVDDYEKQVIEDALFLFSGRVADAANYLQVPRKKLYLRMKKHGLEKDAFKAREGHHHHHH | not soluble
16 | MSGELKDRLVARALEEGFVSCRVCRPWDVPEMPARLGAFVEAGYHGQMGWMAERMEWRGDPAALWPEARSVIMLAESYAPDTDPMEVVGQPDRGAISVYARGKDYHDLVKKRLKRLARWLIEAGGGEVKVFVDTAPVPEKALGQAAGLGWQGKHTNLVSRDWGNWAFLGSVFTTLDLPSDPVGRDNCGSCSACLTACPTDAFPAPYRLDARRCISYLTIEHKGPVDEELRAKLGNRIYGCDDCLAACPWNKFAVAASDLRYGARPELSAPALADLARLDDAGFREMFSGSPIKRIGRDRFVRNVLYAIGNSGLPALRPVAQDLAQDSDPTVADAARWAAAKLAMSR | not soluble
17 | MERYVWARFFWQQARDKRGVPRRHVCDTARNNNRRPETGTAFTALCSTTVTPHPDDDDTVKGTCFAPACQVCTILLARAMNWNDGELGQLVQTFHWTHADIALLATALDITRSEARRLLTAWTDAAK | not soluble
18 | MWFKNLTLYRFNKPFSIETEALETALADFTFSPCGSQDVSKFGFSNALGKKGSTLVHSANNRHLICVTKEEKILPAQVIKESLEEKVAQIEDEENRKLAKKEKDALKDEIITSLLPRAFSRRSQTRALILPELEMILVDSSSATKAEELLALLRKALGSLPVIPLSFKAPIESQLTEWLKNGSAPLPFEMQDEAELKSAADEGGIVRFKQQDLKEDEVLAHLETGKEVHKLALHFGQSIALLLQSDASVKRLKFSEEFRAGNDELGNEDPMARLDADFALMGSELVALMHALVSALGGIEETQA | soluble
19 | EASLTGAGATFPAPVYAKWADTYQKETGNKVNYQGIGSSGGVKQIIANTVDFGASDAPLSDEKLAQEGLFQFPTVIGGVVLAVNIPGLKSGELVLDGKTLGDIYLGKIKKWDDEAIAKLNPGLKLPSQNIAVVRRADGSGTSFVFTSYLAKVNEEWKNNVGTGSTVKWPIGLGGKGNDGIAAFVQRLPGAIGYVEYCYAKQNNLAYTKLISADGKPVSPTEENFANAAKGADWSKTFAQDLTNQKGEDAWPITSTTFILIHKDQKKPEQGTEVLKFFDWAYKTGAKQANDLDYASLPDSVVEQVRAAWKTNIKDSSGKPLY | soluble
20 | MGSDKIHHHHHHTPLPPVKQPHPATSQQHQEPVRGVWLATVSRLDWPPVTSVNTNSPAIRITQQQEALKGKLDKLKSLGINTVFFQIKPDGTALWPSKILPWSDMMTGHIGEDPGYDPLQFMLDEAHKRGMKVHAWFNPYRVSVNTKSGTVAELNRTLSQNPASVFVLHRDWIRTAGDRFVLDPGIPEARNWITSIVAEVVARYAIDGVQFDDYFYAESPGSVLNDGETFKKYGQGFGSKADWRRHNTQQLIEQVSRTIKQLKPEVEFGVSPAGVWRNRSHDAAGSDTRGAAAYDEAYADTRLWVQQGLLDYIAPQLYWPFARDAARYDVLAKWWADVVKPTSTRLYIGVALYKVGEPSKNEPDWMISGGVPELKKQLDLNESTPHIDGTILFRENYLNQPQTQEAVNYLRNRWNPI | not soluble
21 | MTKSQKQTKQYLRIFDQQMSLYEHYARKNSLQSKSLFILLWLYYNPQGITQKQIVEKTYSTKQVVNATLKRWNEKNYIVFLKSQTDRREKKIILSSQGQEYAASIIAPLEKMEEAAFNSLSIQEQQTMIQLTGHYYQALLSQMQLYFVQGEGEKATKEKL | not soluble
22 | MGSDKIHHHHHHMLKIELLESFIAVAECGNLSKAADKICRTQSTLSLQVKKLEESVGQTLLIRDNKGVTLTESGETLLNYAYKMMQLNSQAIDELKDCQNREVIRLGVPTDFIKCYLSSCLLEFIREFTSIELVIDTDVSGNLYKRLHQGEFDVIVATHWQVPTNGELLFTRRFKWVSAVEGNAHKRKTIPMGLYPENCPIRAQVFANHRLSMRPINVLLSTPSPQALCMAVENDLVIAPIAEFRITDQMQVLDPIEHGLPILPMFNESLYLNPDTQTYATLQLINLIKANVEHKGYQLD | not soluble
